Consider two molecules from PMC5156300 (mBio, 2016).

Test [1] deals with NP-Renilla wild type (NP of influenza virus A/WSN/33) (Influenza A virus A/WSN/33, UniProt P15682). Kind of test: LUMIER. As to conditions: partners not purified.
Test [2] concerns the target NP of influenza virus A/WSN/33 in infected A549 cells (Influenza A virus A/WSN/33, UniProt P15682). Kind of test: flow cytometry on cells. As to conditions: one partner purified. (In general: A flow cytometer gives signals particle by particle.)
The target of test [3] is NP of influenza virus A/PR/8/34 in infected A549 cells (Influenza A virus A/PR/8/34, UniProt P03466). Kind of test: flow cytometry on cells. The settings on record: one partner purified.
NP of influenza virus A/PR/8/34 in infected A549 cells, sequence (P03466 whole entry): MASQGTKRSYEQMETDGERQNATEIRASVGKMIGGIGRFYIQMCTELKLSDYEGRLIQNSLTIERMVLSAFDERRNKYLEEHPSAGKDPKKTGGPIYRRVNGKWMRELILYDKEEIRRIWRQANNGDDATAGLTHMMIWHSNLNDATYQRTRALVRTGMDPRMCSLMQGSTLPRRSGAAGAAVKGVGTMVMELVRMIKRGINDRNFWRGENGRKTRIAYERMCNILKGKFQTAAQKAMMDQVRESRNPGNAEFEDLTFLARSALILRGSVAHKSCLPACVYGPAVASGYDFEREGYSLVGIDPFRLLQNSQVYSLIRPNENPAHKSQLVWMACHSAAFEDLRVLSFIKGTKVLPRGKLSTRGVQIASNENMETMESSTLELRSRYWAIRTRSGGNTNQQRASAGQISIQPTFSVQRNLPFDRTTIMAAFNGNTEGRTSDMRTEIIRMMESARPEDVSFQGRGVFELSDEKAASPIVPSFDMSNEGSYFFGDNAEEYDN

NP-Renilla wild type (NP of influenza virus A/WSN/33), sequence (P15682 whole entry): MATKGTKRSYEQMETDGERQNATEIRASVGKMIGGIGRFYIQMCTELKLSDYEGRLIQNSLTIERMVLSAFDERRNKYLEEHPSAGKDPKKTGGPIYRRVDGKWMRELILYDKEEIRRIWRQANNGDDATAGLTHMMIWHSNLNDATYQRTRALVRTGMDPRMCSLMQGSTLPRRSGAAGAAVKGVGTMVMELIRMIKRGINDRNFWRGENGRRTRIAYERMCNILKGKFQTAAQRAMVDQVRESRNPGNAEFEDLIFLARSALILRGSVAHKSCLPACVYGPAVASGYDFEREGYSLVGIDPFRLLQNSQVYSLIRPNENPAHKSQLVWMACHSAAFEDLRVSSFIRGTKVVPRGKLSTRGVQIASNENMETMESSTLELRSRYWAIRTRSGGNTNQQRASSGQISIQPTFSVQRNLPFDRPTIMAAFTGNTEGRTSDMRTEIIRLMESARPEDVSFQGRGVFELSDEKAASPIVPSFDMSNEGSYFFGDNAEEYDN
NP of influenza virus A/WSN/33 in infected A549 cells, sequence (P15682 whole entry): as above

B1: αNP-VHH1-HA (VHH)
VHH: QVQLQESGGGLVQAGGSLRLTCALSERTSTSYAQGWFRQPPGKEREFVASLRTHDGNTHYTDSVKGRFTISRDNAENTLYLQMNSLKTEDTAVYYCAASLGYSGAYASGYDYWGQGTQVTVSS
notes: also called anti-NP-VHH1-HA; HA-tagged anti-NP-VHH1; source: 293T, transfected (pCAGGS), in lysate
Consider B1, for which, in test [1], the binding result is “binds”.

B2: αNP-VHH1-Alexa Fluor 647 (VHH)
VHH: B1 VHH
For the molecule B2, the binding result in test [2] and in test [3] was “binds” in each case.
